Tests used:
[1] = biological target: T1, cell surface BST1 protein (Homo sapiens, UniProt Q10588); test: Flow cytometry binding of anti-BST1 antibodies to BST1-expressing cells; settings: A549 and H226 cells
T1 construct: the antibodies were incubated with the BST1-expressing cells, A549 and H226, from human lung adenocarcinoma and human lung squamous carcinoma; endogenous in cells; host or cells: A549 (human lung adenocarcinoma) and H226 (human lung squamous carcinoma)
T1 sequence (Q10588 33-293): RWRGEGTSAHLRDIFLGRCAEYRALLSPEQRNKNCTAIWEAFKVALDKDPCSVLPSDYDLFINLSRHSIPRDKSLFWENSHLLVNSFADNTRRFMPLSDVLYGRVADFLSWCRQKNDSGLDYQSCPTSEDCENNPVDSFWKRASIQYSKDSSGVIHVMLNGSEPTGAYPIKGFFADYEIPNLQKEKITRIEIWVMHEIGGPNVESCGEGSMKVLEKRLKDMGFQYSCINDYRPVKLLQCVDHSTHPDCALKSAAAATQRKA
Protocol: (§1) The specificity of antibodies against the BST1 selected in Example 2 was tested by flow cytometry. To test the ability of the antibodies to bind to the cell surface BST1 protein, the antibodies were incubated with the BST1-expressing cells, A549 and H226, from human lung adenocarcinoma and human lung squamous carcinoma, respectively. Cells were washed in FACS buffer (DPBS, 2% FBS), centrifuged and resuspended in 100 μl of the diluted primary BST1 antibody (also diluted in FACS buffer). The antibody-A549 complex was incubated on ice for 60 min and then washed twice with FACS buffer as described above. The cell-antibody pellet was resuspended in 100 μl of the diluted secondary antibody (also diluted in FACS buffer) and incubated on ice for 60 min on ice. The pellet was washed as before and resuspended in 200 μl FACS buffer. The samples were loaded onto the BD FACScanto II flow sytometer and the data analyzed using the BD FACSdiva software.

H226 cells = test: MabZAP internalization assay, H226 cells; format: cell-based; settings: compared to anti-human IgG isotype control
Protocol: (§2) Internalization of BST1_A1 and BST1_A2 by H226 and A549 were investigated using a MabZap assay. […] (Advanced Targeting System, San Diego, Calif., IT-22-100). First, BST1 Fab was bound to the surface of the cells. Then, the MabZAP antibodies were bound to the primary antibodies. Next, the MabZAP complex was internalized by the cells.
(§3) The MabZAP assay was conducted as follows. Each of the cells was seeded at a density of 5×10^3 cells per well. The anti-BST1 monoclonal antibody or an isotype control human IgG was serially diluted then added to the cells and incubated for 15 min at 25° C. The MabZAP was then added and incubated for 72 hr at 37° C. Cell viability in the plates was detected by CellTiter-Glo® Luminescent Cell Viability Assay kit (Promega, G7571) and the plates were read and analysed using Promega Glomax. Cell death was proportional to the concentration of anti-BST1 monoclonal antibodies.

A549 cells = test: MabZAP internalization assay, A549 cells; format: cell-based; settings: compared to anti-human IgG isotype control
Protocol: as §2, §3

[2] = biological target: T2, ADP-ribosyl cyclase 2 (CD157; BST1) (human, UniProt Q10588 33-293); test: flow cytometry on BST1-expressing H226 and A549 cells, PE-labelled secondary antibody, geometric mean fluorescence; single antibody dilution, concentration not given
T2 construct: Endogenous lipid-anchored BST1 on human cell lines (A549, H226, U937) and on AML patient blasts; also called Bone marrow stromal antigen 1; cell-surface human BST1
T2 sequence: T1 sequence (Q10588 33-293)
Protocol: as §1

B1: BST_A3: anti-BST1 monoclonal antibody, VH SEQ ID NO: 52, VK SEQ ID NO: 53 (antibody, listed as Mus musculus)
heavy: MKQSTIALALLPLLFTPVAKAQVQLQQSRAELVMPGASVKMSCKTSGYTFSDYWVHWVRQRPGQGLEWIGAIDGSDTFNDYSQKFKGRATLTVDESSSTVYMQLSSLTSEDSAVYYCARGGLLQYWGQGTTLTVSSAKTTPPSVYPLAPGSAAQTNSMVTLGCLVKGYFPEPVTVTWNSGSLSSGVHTFPAVLQSDLYTLSSSVTVPSSTWPSETVTCNVAHPASSTKVDKKIVPRDCHHHHHHH
light: MKYLLPTAAAGLLLLAAQPAMADIQLTQSPASLSASVGETVTITCRASENIYSYLAWYQQKQGKSPQLLVYNTKTLGEGVPSRFSGSGSGTQFSLKINSLQPEDFGSYYCQHHYGTPFTFGSGTKLEIKRADAAPTVSIFPPSSEQLTSGGASVVCFLNNFYPKDINVKWKIDGSERQNGVLNSWTDQDSKDSTYSMSSTLTLTKDEYERHNSYTCEATHKTSTSPIVKSFNRNES
binding to cell-surface human BST1 [1]: bound effectively

B2: BST1_A1: anti-BST1 monoclonal antibody, VH SEQ ID NO: 1, VK SEQ ID NO: 3, murine VH 1-80 / VK 4-74 (antibody, listed as Mus musculus)
heavy: MKQSTIALALLPLLFTPVAKAQVKLQQSGAELVRPGSSVKISCKASGYAFSNSWINWVKQRPGQGLEWIGQIYPGDYDTNYNGKFKGKATLTADYSSSTAYMQLNSLTSEDSAVYFCARGGSIYYGNLGFFDVWGAGTTVTVSSAKTTPPSVYPLAPGSAAQTNSMVTLGCLVKGYFPEPVTVTWNSGSLSSGVHTFPAVLQSDLYTLSSSVTVPSSTWPSETVTCNVAHPASSTKVDKKIVPRDCHHHHHHH
light: MKYLLPTAAAGLLLLAAQPAMAEMVLTQSPAIMSTSLGERVTMTCTASSRVSSSYLHWYQQKPGSSPKLWIYSTSNLASGVPARFSGSGSGTSYSLTISSMEAEDAATYYCHQYHRSPYTFGGGTKLEIKRADAAPTVSIFPPSSEQLTSGGASVVCFLNNFYPKDINVKWKIDGSERQNGVLNSWTDQDSKDSTYSMSSTLTLTKDEYERHNSYTCEATHKTSTSPIVKSFNRNES
internalization (MabZAP) (H226 cells): efficiently internalized
binding to cell-surface human BST1 [1]: bound effectively
internalization (MabZAP) (A549 cells): efficiently internalized

B3: BST1_A2 (murine, as selected in Example 2) (Fab, V domains shown)
VH: QAYLQQSGPELVKAGASVKMSCKASGYSFIEYTINWVKQSHGKSLEWIGNIDPYYGTTYYNQMFTGKATLTVDQSSNTAYMQLKSLTSEDSAVYFCARGSAWFPYWGQGTLVTVSA
VL: DIVMSQSPAIMSASPGEKVTMTCSASSSVTYMYWYQQKPGSSPRLLIYDTSNLASGVPVRFSGSGSGTSYSLTISRMEAEDTATYYCQQWSNYPLTFGAGTKLELKR
notes: also called anti-BST1 monoclonal antibody BST1_A2
binding result [2]: binds

B4: BST1_A3 (Fab, V domains shown)
VH: QVQLQQSRAELVMPGASVKMSCKTSGYTFSDYWVHWVRQRPGQGLEWIGAIDGSDTFNDYSQKFKGRATLTVDESSSTVYMQLSSLTSEDSAVYYCARGGLLQYWGQGTTLTVSS
VL: DIQLTQSPASLSASVGETVTITCRASENIYSYLAWYQQKQGKSPQLLVYNTKTLGEGVPSRFSGSGSGTQFSLKINSLQPEDFGSYYCQHHYGTPFTFGSGTKLEIKR
binding result [2]: binds

B5: BST1_A1 (Fab, V domains shown)
VH: QVKLQQSGAELVRPGSSVKISCKASGYAFSNSWINWVKQRPGQGLEWIGQIYPGDYDTNYNGKFKGKATLTADYSSSTAYMQLNSLTSEDSAVYFCARGGSIYYGNLGFFDVWGAGTTVTVSS
VL: EMVLTQSPAIMSTSLGERVTMTCTASSRVSSSYLHWYQQKPGSSPKLWIYSTSNLASGVPARFSGSGSGTSYSLTISSMEAEDAATYYCHQYHRSPYTFGGGTKLEIKR
notes: also called anti-BST1 monoclonal antibody BST1_A1
binding result [2]: binds
